Where only a bound is given, the exact number is not on record here.

For assay [1], the target named is T1, hCMV gH + gL + UL128 + UL130 + UL131A (5-member complex; HEK293T co-transfectant) (hCMV, UniProt P12824 24-743; P16832 31-278; P16837 1-171; P16772 1-214).
T1 construct: whole, on cells; in the functional rows it stands for the complex on virions or transduced cells of the strain or isolate named in the readout; also called gH/gL/UL128-131A complex; pentameric complex
Kind of assay: cell competition; competitor 4I22-biotin.

The target of assay [2] is T2, hCMV UL128 (HEK293T transfectant) (hCMV, UniProt P16837 28-171).
T2 sequence: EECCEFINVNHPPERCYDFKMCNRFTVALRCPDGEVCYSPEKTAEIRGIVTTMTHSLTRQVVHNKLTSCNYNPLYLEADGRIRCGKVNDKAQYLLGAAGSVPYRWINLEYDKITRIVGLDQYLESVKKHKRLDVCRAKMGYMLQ
Kind of assay: cell-based or functional assay.

Assay [3] has as its target T1, hCMV gH + gL + UL128 + UL130 + UL131A …. As to the kind of experiment: cell competition; competitor 1F11-biotin.
Assay [4] deals with T2, hCMV UL128 (HEK293T transfectant). As to the kind of experiment: cell-based or functional assay. This is another data set of the same source.
Assay [5] concerns the target T1, hCMV gH + gL + UL128 + UL130 + UL131A …. Kind of assay: cell competition; competitor 2F4-biotin.
Assay [6] shares this target. As to the kind of experiment: cell competition; competitor 8I21-biotin.
Assay [7] shares this target. Kind of assay: cell competition; competitor 10F7-biotin.
Assay [8] has the same target. As to the kind of experiment: cell competition; competitor 2C12-biotin.
Assay [9] has the same target. As to the kind of experiment: cell competition; competitor 5A2-biotin.
Assay [10] shares this target. Kind of assay: cell competition; competitor 4N10-biotin.
Assay [11] shares this target. Kind of assay: cell competition; competitor 15D8-biotin.
Assay [12] shares this target. As to the kind of experiment: cell competition; competitor 6G4-biotin.
The target in assay [13] is T3, hCMV glycoprotein B (gB; HEK293T transfectant) (hCMV, UniProt P06473 32-906). As to the kind of experiment: cell-based or functional assay.
T3 sequence (P06473 32-906 limits assumed): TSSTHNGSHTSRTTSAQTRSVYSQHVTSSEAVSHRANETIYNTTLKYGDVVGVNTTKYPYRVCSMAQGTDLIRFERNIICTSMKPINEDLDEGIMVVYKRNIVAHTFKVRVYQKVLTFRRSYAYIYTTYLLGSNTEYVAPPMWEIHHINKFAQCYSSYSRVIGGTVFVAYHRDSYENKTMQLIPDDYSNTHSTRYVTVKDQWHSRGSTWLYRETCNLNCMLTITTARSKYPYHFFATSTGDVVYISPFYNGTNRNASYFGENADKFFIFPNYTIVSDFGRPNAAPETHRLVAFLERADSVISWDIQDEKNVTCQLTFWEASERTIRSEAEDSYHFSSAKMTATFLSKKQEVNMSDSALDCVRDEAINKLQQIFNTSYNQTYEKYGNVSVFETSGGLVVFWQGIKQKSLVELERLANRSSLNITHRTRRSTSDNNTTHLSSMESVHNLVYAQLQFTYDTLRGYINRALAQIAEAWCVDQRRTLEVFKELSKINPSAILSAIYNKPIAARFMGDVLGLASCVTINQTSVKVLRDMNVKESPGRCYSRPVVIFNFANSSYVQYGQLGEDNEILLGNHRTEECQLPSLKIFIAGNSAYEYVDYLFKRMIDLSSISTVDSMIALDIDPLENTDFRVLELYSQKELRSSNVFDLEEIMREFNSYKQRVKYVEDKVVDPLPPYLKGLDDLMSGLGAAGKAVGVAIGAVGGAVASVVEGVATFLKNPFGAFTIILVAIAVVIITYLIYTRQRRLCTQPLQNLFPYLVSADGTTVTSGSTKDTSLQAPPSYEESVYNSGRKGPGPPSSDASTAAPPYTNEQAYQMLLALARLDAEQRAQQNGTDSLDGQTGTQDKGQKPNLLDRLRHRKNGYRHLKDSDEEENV
Assay [14] concerns the target T3, hCMV glycoprotein B (gB; HEK293T …). As to the kind of experiment: cell competition; competitor 2B11-biotin.
The target is the same in assay [15]. Kind of assay: cell-based or functional assay. This is another data set of the same source.
Assay [16] has the same target. As to the kind of experiment: cell competition; competitor 4H9-biotin.
Assay [17] has the same target. As to the kind of experiment: cell-based or functional assay. The source holds these as a separate data set.
Assay [18] has the same target. Kind of assay: cell competition; competitor 6B4-biotin.
The target is the same in assay [19]. As to the kind of experiment: cell competition; competitor 10C6-biotin.
For assay [20] the target is unchanged. Kind of assay: cell competition; competitor 7H3-biotin.
Assay [21] has the same target. Kind of assay: cell competition; competitor 5F1-biotin.

B1: 15D8 (antibody, V domains shown)
VH: EVQLVQSGAEVKKPGESLKISCQASGYSFTNYWIAWVRQMPGKGLEWMGIIYPGDSDIKYSPSFRGQVTISADKSISNAFLQWRSLRASDTAMYYCARHAIRGDGFDYWGQGTLVTVSS
VL: SYELTQPPSVSVSPGQTATITCSGDKLGEKYACWYQQKPGQSPVLVMYQDTKRPSGIPERFSGSNSGNTATLTISGTRAMDEADYYCQAWDTNTVIFGGGTKLTVL
notes: human IgG; also called 15D8-biotin
On to B1, for which the “Inhibition of binding (%)” value in [1], in assay [3], in assay [5], in assay [6], in assay [7] and in assay [8] was 0% in each case. In addition, the “Inhibition of binding (%)” value in [9] was 0%; in assay [10] it was 0%; in assay [11], 100%; in [12], 0%. Also, in assay [2], the “90% neutralization VR1814, ARPE” value was found to be 0.008 µg/mL. Further, the “90% neutralization VR1814, MRC-9” value in assay [2] is more than 10 µg/mL. Besides, the “50% neutralization VR1814, ARPE” value in assay [4] is less than 0.001 µg/mL. For the same molecule, the “50% neutralization VR1814, MRC-9” value in assay [4] is more than 2 µg/mL.

B2: 5F1 (antibody, V domains shown)
VH: AVQLVESGGGLAQPGRSLRLSCKVSGFTFSSYEMNWVRQAPGKGLEWIAYIDFTGSTIYYADSVKGRFTISRDTARNSLYLQMNKLRVEDTAVYYCVRDAGRWGTSWYYFDYWGQGTLVTVSS
VL: QSVLTQPPSVSGAPGQRVTISCTGLSSNIGAGYDIHWYQQIPGKAPKLLIYGNNNRPSGVPDRFSGSKSGTSVSLAITGLQAEDEADYYCQSYDSSLNGWVFGGGTRLTVL
notes: human IgG; also called 5F1-biotin
For B2, the “90% neutralization VR1814, ARPE” value in assay [13] worked out at 0.1 µg/mL. The “90% neutralization VR1814, MRC-9” value in [13] was found to be 0.5 µg/mL. Moreover, the “Inhibition of binding (%)” value in [14] is 100%; in assay [16], 100%; in assay [18], 0%; in assay [19] it was 100%; in [20], 0%; in [21] it was 100%. Also, the “50% neutralization VR1814, ARPE” value in assay [15] was not above 2 µg/mL. In assay [15], the “50% neutralization VR1814, MRC-9” value was not above 2 µg/mL. In addition, the “50% neutralization VR1814, BM-MSC” value in assay [17] amounted to 0.3 µg/mL. The “50% neutralization VR1814, Mo-DC” value in assay [17] turned out to be 0.05 µg/mL.

B3: 2B11 (antibody, V domains shown)
VH: AVRLVESGGGLAQPGRSLRLSCQVSGFTFGSYEMNWVRQAPGKGLEWIAYIDFTGSTIYYADSVKGRFTISRNTARNSLYLQMNSLRVEDTAVYYCVRDAGRWGTSWYYFDYWGQGTRVTVSP
VL: QSVLTQPPSVSGAPGQRVTISCTGISSNIGAGYDIHWYQQIPGKAPKLLVYGNNNRPSGVPDRFSGSKSGTSVSLAITGLQVEDEADYYCQSYDNSLNGWVFGGGTRLTVL
notes: human IgG; also called 2B11-biotin
B3: the “90% neutralization VR1814, ARPE” value in assay [13] was found to be 0.2 µg/mL. Moreover, in assay [13], the “90% neutralization VR1814, MRC-9” value worked out at 0.75 µg/mL. The “Inhibition of binding (%)” value in assay [14] was found to be 100%; in assay [16], 100%; in [18], 0%; in assay [19] it was 100%; in assay [20] it was 0%; in [21], 100%.

B4: 10C6 (antibody, V domains shown)
VH: AVQLVESGGGLAQPGRSLRLSCKVSGFSFSNFEMNWVRQAPGKGLEWIAYIDFTGSTIYYSDSVKGRFTISRDTARNSLYLQMNKLRVEDTAVYYCVRDAGRWGTSWYYFDYWGQGTLVTVSS
VL: QSVLTQPPSVSGAPGQRVTISCTGLSSNIGAGYDIHWYQQIPGKAPKLLIYGNNNRPSGVPDRFSGSKSGTSVSLAITGLQAEDEADYYCQSYDSSLNGWVFGGGTRLTVL
notes: human IgG; also called 10C6-biotin; 1006
As for B4, the “90% neutralization VR1814, ARPE” value in [13] was 0.2 µg/mL. The “90% neutralization VR1814, MRC-9” value in assay [13] was found to be 0.75 µg/mL. Further, the “Inhibition of binding (%)” value stood at 100% in assay [14]; 100% in assay [16]; 0% in [18]; 100% in [19]; 0% in assay [20]; 100% in assay [21]. In addition, in assay [15], the “50% neutralization VR1814, ARPE” value was not above 2 µg/mL. Further, in [15], the “50% neutralization VR1814, MRC-9” value is not above 2 µg/mL. Further, the “50% neutralization VR1814, BM-MSC” value in assay [17] came to 0.3 µg/mL. The “50% neutralization VR1814, Mo-DC” value in assay [17] was 0.02 µg/mL.

B5: 6B4 (antibody, V domains shown)
VH: QVQLVESGGGVVQPGRSLRLSCAASGFRFNEFNMHWVRQAPGKGLEWVAVISIDGRHKYNADSVEGRFTISRDNSRNTLYLQMNSLRVEDTALYYCVTDGKAVDGFSGILEFWGQGTPVTVST
VL: EIVLTQSPATLSLSPGERATLSCWASQSVGGYLAWYQQKPGQAPRLLIYDASIRATGIPARFSGSGSGTHFTLTINSLEPEDFAVYYCQQRNNWPPLTFGGGTKVEIK
notes: human IgG; also called 6B4-biotin
With B5, the “90% neutralization VR1814, ARPE” value in assay [13] was found to be 0.15 µg/mL. In addition, in assay [13], the “90% neutralization VR1814, MRC-9” value turned out to be 1 µg/mL. Further, the “Inhibition of binding (%)” value stood at 0% in assay [14]; 0% in assay [16]; 100% in [18]; 0% in assay [19]; 0% in assay [20]; 0% in [21]. Moreover, in assay [15], the “50% neutralization VR1814, ARPE” value was not above 2 µg/mL. Moreover, the “50% neutralization VR1814, MRC-9” value in [15] is not above 2 µg/mL. Also, the “50% neutralization VR1814, BM-MSC” value in assay [17] was determined as 2 µg/mL. For the same molecule, in assay [17], the “50% neutralization VR1814, Mo-DC” value was found to be 0.11 µg/mL.

B6: 4H9 (antibody, V domains shown)
VH: AVQLVESGGGLVRPGGSLRLSCAASGFTFSSHEMHWVRQAPGKGLEWLSYIDFTGSIIYYADSVRGRFTISRDNTKKSLFLQMNSLRDEDTALYYCARDGGRWGTSWYYFDYWGQGVLVTVSS
VL: QSVLTQPPSVSGAPGQRVTITCTGSSSNFGAGYDGHWYQQLPGTAPKLLIYGSNRPSGVPDRFSGSKSGTSVSLAITGLQADDEADYYCQSYDSSLSAWVFGGGTKLTVL
notes: human IgG; also called 4H9-biotin; 4H9.6
As for B6, in [13], the “90% neutralization VR1814, ARPE” value was determined as 0.4 µg/mL. The “90% neutralization VR1814, MRC-9” value in assay [13] worked out at 10 µg/mL. Besides, the “Inhibition of binding (%)” value in assay [14] came out at 100%; in [16], 100%; in [18] it was 0%; in assay [19], 100%; in [20], 0%; in assay [21], 100%. Further, in assay [15], the “50% neutralization VR1814, ARPE” value was not above 2 µg/mL. The “50% neutralization VR1814, MRC-9” value in assay [15] was not above 2 µg/mL.

(Values after US20170296650A1 (Novartis, published 2017).)
